The text below walks through data of IntAct's records for PubMed 17005671.

B1: Tyrosine-protein kinase-interacting protein (Saimiriine herpesvirus 2 (strain 488) (SaHV-2)), P22575 (parent)
chain: MANEGEEIELTEFPETEKERKDEEKLSSCSEETTNTSSSSGSDHVPVPIEVNVIIQNSSRTEDELQNSKEIELTGFQGKLSSCSEETTAPSSSYSSKQASVFIEENGDNETSTYRPQNVLTNLNSLYTTFEDARAQGKGMVRHKSEDLQSFLEKYPPDFRKPKRDLSATWDPGMPTPPLPPRPANLGERQASTVRLHVKESNCKQPRERKANERNIVKDLKRLENKINVIICLVVVILAVLLLVTVLSILHIGMKS

The experiment “cd4_human CD4, P01730” covers variants of B1. The settings on record: with cd4_human CD4, P01730.
The experiment “lck_human LCK, P06239” covers variants of B1. The settings on record: with lck_human LCK.

lck_human LCK, P06239, sequence (P06239 whole entry, looked up): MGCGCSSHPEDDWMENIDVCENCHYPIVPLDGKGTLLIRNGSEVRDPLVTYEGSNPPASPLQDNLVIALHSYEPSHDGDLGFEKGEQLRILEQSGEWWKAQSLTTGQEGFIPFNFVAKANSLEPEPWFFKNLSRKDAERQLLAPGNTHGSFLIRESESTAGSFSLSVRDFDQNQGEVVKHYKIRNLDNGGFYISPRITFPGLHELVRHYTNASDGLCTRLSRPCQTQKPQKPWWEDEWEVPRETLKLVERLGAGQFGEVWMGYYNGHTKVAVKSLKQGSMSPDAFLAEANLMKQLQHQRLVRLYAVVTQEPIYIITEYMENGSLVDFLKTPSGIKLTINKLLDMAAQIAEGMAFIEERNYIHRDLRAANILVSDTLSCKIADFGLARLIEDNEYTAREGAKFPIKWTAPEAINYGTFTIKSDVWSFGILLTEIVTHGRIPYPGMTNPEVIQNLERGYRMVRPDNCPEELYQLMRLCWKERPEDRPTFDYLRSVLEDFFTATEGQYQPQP

As for P178A, the “effect of a mutation on the interaction” value with cd4_human CD4, P01730 is listed as “decreasing interaction”; in the experiment with lck_human LCK, P06239, “decreasing interaction”.

For the variant P183A, the “effect of a mutation on the interaction” value is given as “decreasing interaction” with cd4_human CD4, P01730 and “decreasing interaction” in the experiment with lck_human LCK, P06239.

Take P180A: the “effect of a mutation on the interaction” value is reported as “decreasing interaction” in the experiment with cd4_human CD4, P01730 and “decreasing interaction” in the experiment with lck_human LCK, P06239.

Consider P175A, for which the “effect of a mutation on the interaction” value with cd4_human CD4, P01730 is “decreasing interaction”; with lck_human LCK, P06239, “decreasing interaction”.

As for P177A, the “effect of a mutation on the interaction” value with lck_human LCK, P06239 is listed as “decreasing interaction”.
